Substitutions are numbered along the chain they refer to. Numbers in names are those of the source. Where “and” joins values, the source holds several entries; their conditions need not be identical. Equal values may be shown once.
B1: FIXa-R318Y/T343R/E410N (activated Factor IX variant, mature FIX numbering) (protein)
chain 1: YNSGKLEEFVQGNLERECMEEKCSFEEAREVFENTERTTEFWKQYVDGDQCESNPCLNGGSCKDDINSYECWCPFGFEGKNCELDVTCNIKNGRCEQFCKNSADNKVVCSCTEGYRLAENQKSCEPAVPFPCGRVSVSQTSKLTR
chain 2: VVGGEDAKPGQFPWQVVLNGKVDAFCGGSIVNEKWIVTAAHCVETGVKITVVAGEHNIEETEHTEQKRNVIRIIPHHNYNAAINKYNHDIALLELDEPLVLNSYVTPICIADKEYTNIFLKFGSGYVSGWGRVFHKGYSALVLQYLRVPLVDRATCLRSTKFRIYNNMFCAGFHEGGRDSCQGDSGGPHVTEVEGTSFLTGIISWGEECAMKGKYGIYTKVSRYVNWIKNKTKLT
B2: FIXa-D203N/F205T/R338E/R403E (protein)
chain 1: B1 chain 1
chain 2: B1 chain 2 with D23N, F25T, Y138R, R158E, R163T, R223E, N230E
B3: FIXa-D203N/F205T/E410N (protein)
chain 1: B1 chain 1
chain 2: B1 chain 2 with D23N, F25T, Y138R, R163T
B4: FIXa-D203N/F205T/R338E (protein)
chain 1: B1 chain 1
chain 2: B1 chain 2 with D23N, F25T, Y138R, R158E, R163T, N230E
B5: FIXa-Y155F/N260S/R318Y/R338E/R403E/E410N (protein)
chain 1: B1 chain 1
chain 2: B1 chain 2 with N80S, R158E, R163T, R223E
B6: FIXa-D104N/K106S/R318Y/R338E/E410N (protein)
chain 1: B1 chain 1 with D104N, K106S
chain 2: B1 chain 2 with R158E, R163T
B7: FIXa variant R318Y/R338E/Y345A/N346D/R403E/E410N (mature FIX numbering) (protein)
chain 1: B1 chain 1
chain 2: B1 chain 2 with R158E, R163T, Y165A, N166D, R223E
B8: FIXa-Y155F/K228N/K247N/N249S (protein)
chain 1: B1 chain 1
chain 2: B1 chain 2 with K48N, K67N, N69S, Y138R, R163T, N230E
B9: FIXa-D203N/F205T/R318Y (protein)
chain 1: B1 chain 1
chain 2: B1 chain 2 with D23N, F25T, R163T, N230E
B10: FIXa-K228N/K247N/N249S/R318Y/R338E/T343R/R403E (activated Factor IX variant, mature FIX numbering) (protein)
chain 1: B1 chain 1
chain 2: B1 chain 2 with K48N, K67N, N69S, R158E, R223E, N230E
B11: FIXa-K228N/K247N/N249S/R318Y/T343R/R403E/E410N (activated Factor IX variant, mature FIX numbering) (protein)
chain 1: B1 chain 1
chain 2: B1 chain 2 with K48N, K67N, N69S, R223E
B12: FIXa-K228N/R318Y/R338E/T343R/R403E/E410N (activated Factor IX variant, mature FIX numbering) (protein)
chain 1: B1 chain 1
chain 2: B1 chain 2 with K48N, R158E, R223E
B13: FIXa-R318Y/R403E/E410N (protein)
chain 1: B1 chain 1
chain 2: B1 chain 2 with R163T, R223E
B14: FIXa variant R318Y/R338E/Y345A/R403E/E410N (mature FIX numbering) (protein)
chain 1: B1 chain 1
chain 2: B1 chain 2 with R158E, R163T, Y165A, R223E
B15: FIXa-K228N/K247N/N249S/R318Y/R338E/T343R/E410N (activated Factor IX variant, mature FIX numbering) (protein)
chain 1: B1 chain 1
chain 2: B1 chain 2 with K48N, K67N, N69S, R158E
B16: FIXa variant R318Y/R338E/T343R/R403E/E410N (mature FIX numbering) (protein)
chain 1: B1 chain 1
chain 2: B1 chain 2 with R158E, R223E
B17: FIXa-R338E/R403E/E410N (protein)
chain 1: B1 chain 1
chain 2: B1 chain 2 with Y138R, R158E, R163T, R223E
B18: FIXa-R318Y/R338E/T412A (protein)
chain 1: B1 chain 1
chain 2: B1 chain 2 with R158E, R163T, N230E, T232A
B19: FIXa-K228N/R338E/R403E (protein)
chain 1: B1 chain 1
chain 2: B1 chain 2 with K48N, Y138R, R158E, R163T, R223E, N230E
B20: FIXa variant R318Y/R338E/T343R/N346D/R403E/E410N (mature FIX numbering) (protein)
chain 1: B1 chain 1
chain 2: B1 chain 2 with R158E, N166D, R223E
B21: FIXa-R318Y/R338E/E410N (protein)
chain 1: B1 chain 1
chain 2: B1 chain 2 with R158E, R163T
B22: FIXa-R318Y/R338E/R403E/E410N (protein)
chain 1: B1 chain 1
chain 2: B1 chain 2 with R158E, R163T, R223E
B23: FIXa-D203N/F205T/K228N (protein)
chain 1: B1 chain 1
chain 2: B1 chain 2 with D23N, F25T, K48N, Y138R, R163T, N230E
B24: FIXa variant R318Y/R338E/T343R/N346Y/R403E/E410N (mature FIX numbering) (protein)
chain 1: B1 chain 1
chain 2: B1 chain 2 with R158E, N166Y, R223E
B25: FIXa variant R318Y/R338E/N346Y/R403E/E410N (mature FIX numbering) (protein)
chain 1: B1 chain 1
chain 2: B1 chain 2 with R158E, R163T, N166Y, R223E
B26: FIXa-Y155F/R318Y/R338E/E410N (protein)
chain 1: B1 chain 1
chain 2: B1 chain 2 with R158E, R163T
B27: FIXa-D203N/F205T/R338A (protein)
chain 1: B1 chain 1
chain 2: B1 chain 2 with D23N, F25T, Y138R, R158A, R163T, N230E
B28: FIXa-K228N/R318Y/E410N (protein)
chain 1: B1 chain 1
chain 2: B1 chain 2 with K48N, R163T

Legend:
[1] = target: Factor X (FX) zymogen, active site titrated and DFP/EGR-cmk treated, P00742
Factor X (FX) zymogen, active site titrated and DFP/EGR-cmk treated, P00742, sequence (P00742 whole entry, looked up): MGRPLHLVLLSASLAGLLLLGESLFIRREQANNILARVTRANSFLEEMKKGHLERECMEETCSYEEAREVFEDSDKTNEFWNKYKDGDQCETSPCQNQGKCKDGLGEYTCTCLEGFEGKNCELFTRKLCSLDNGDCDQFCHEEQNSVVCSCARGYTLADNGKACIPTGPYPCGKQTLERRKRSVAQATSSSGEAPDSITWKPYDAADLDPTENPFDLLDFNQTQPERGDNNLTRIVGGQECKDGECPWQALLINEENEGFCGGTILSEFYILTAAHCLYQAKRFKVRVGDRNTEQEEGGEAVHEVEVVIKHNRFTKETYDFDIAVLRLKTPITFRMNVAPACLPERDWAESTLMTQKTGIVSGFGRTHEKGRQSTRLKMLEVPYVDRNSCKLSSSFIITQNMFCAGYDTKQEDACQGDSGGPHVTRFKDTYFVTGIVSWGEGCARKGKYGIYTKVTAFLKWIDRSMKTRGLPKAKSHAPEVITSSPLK

[2] = target: T1, Antithrombin III (plasma purified human AT-III, Molecular Innovations); test: AT-III/UFH inhibition: FIXa variant incubated with AT-III dilutions in excess unfractionated heparin, residual cleavage of Mesyl-D-CHG-Gly-Arg-AMC; K0.5 = AT-III concentration for 50% inhibition (IC50)
[3] = target: T1, Antithrombin III (plasma purified human …); test: same assay; ratio to recombinant wild-type FIXa (Catalyst Biosciences WT)
[4] = target: antithrombin III (plasma purified human AT-III), used as the AT-III/unfractionated heparin complex; test: K0.5 ratio to Catalyst Biosciences WT FIXa, AT-III/UFH inhibition assay
[5] = target: plasma purified human AT-III (antithrombin III); test: AT-III/UFH inhibition K0.5, ratio to Catalyst Biosciences WT FIXa
[6] = target: plasma purified human antithrombin III (AT-III), as complex with unfractionated heparin; test: ratio of K0.5 to Catalyst Biosciences WT FIXa, AT-III/UFH inhibition
[7] = target: plasma purified human AT-III (antithrombin III), in complex with full-length unfractionated heparin (UFH); test: ratio of K0.5 (lower-limit value) of the variant to K0.5 of Catalyst Biosciences WT FIXa, AT-III/UFH inhibition

Factor X, P00742, sequence (P00742 whole entry, looked up): as above
Factor X (FX), P00742, sequence (P00742 whole entry, looked up): as above

| Protein | K0.5 [2] [nM] | K0.5-mut/K0.5-wt [3] | KM (Factor X, P00742) [µM] | kcat (Factor X (FX), P00742) | K0.5-mut/K0.5-wt [4] [fold] | also measured |
| --- | --- | --- | --- | --- | --- | --- |
| B1 | – | – | – | – | – | % of WT kcat/KM (against recombinant Catalyst Biosciences WT FIXa) [1]: 135%; kcat/KM (catalytic activity for FX activation; Xase complex with FVIIIa, PC/PS vesicles and Ca2+; fluorogenic Spectrafluor FXa read-out) [1]: 6.2e+07 M⁻¹ s⁻¹ |
| B2 | 1520 | 78.6 | 0.0511 | 0.9 s⁻¹ | 78.6 | % of WT kcat/KM (Factor X (FX), P00742): 42%; kcat/KM (Factor X (FX), P00742): 1.9e+07 M⁻¹ s⁻¹ |
| B3 | 377 | 19.5 | 0.0455 | 1.7 s⁻¹ | 19.5 | % of WT kcat/KM (Factor X (FX), P00742): 94%; kcat/KM (Factor X (FX), P00742): 4.2e+07 M⁻¹ s⁻¹ |
| B4 | 1170 | 60.5 | 0.0241 | 2.5 s⁻¹ | 60.5 | % of WT kcat/KM (Factor X (FX), P00742): 234%; kcat/KM (Factor X (FX), P00742): 1e+08 M⁻¹ s⁻¹ |
| B5 | – | – | – | – | – | K0.5-mut/K0.5-wt [5]: 501; % of WT kcat/KM (Factor X, P00742): 156%; kcat (Factor X, P00742): 5.8 s⁻¹; kcat/KM (Factor X, P00742): 7e+07 M⁻¹ s⁻¹; KM (Factor X (FX), P00742): 0.0839 µM; kcat of FX activation by FIXa (Xase complex with FVIIIa, PC/PS vesicles, Ca2+) (Factor X (FX), P00742): 5.8 s⁻¹; K0.5-mut/K0.5-wt [6]: 501 |
| B6 | 6330 | 327 | 0.0189 | 4.8 s⁻¹ | 327 | – |
| B7 | – | – | – | – | – | K0.5-mut/K0.5-wt [7]: 517 |
| B8 | – | – | – | – | – | K0.5-mut/K0.5-wt [5]: 1.4; % of WT kcat/KM (Factor X, P00742): 118%; kcat (Factor X, P00742): 4.3 s⁻¹; kcat/KM (Factor X, P00742): 5.3e+07 M⁻¹ s⁻¹; KM (Factor X (FX), P00742): 0.0792 µM; kcat of FX activation by FIXa (Xase complex with FVIIIa, PC/PS vesicles, Ca2+) (Factor X (FX), P00742): 4.3 s⁻¹; K0.5-mut/K0.5-wt [6]: 1.4 |
| B9 | 7230 | 374 | 0.0475 | 0.9 s⁻¹ | 374 | % of WT kcat/KM (Factor X (FX), P00742): 45%; kcat/KM (Factor X (FX), P00742): 2e+07 M⁻¹ s⁻¹ |
| B10 | – | – | – | – | – | % of WT kcat/KM (against recombinant Catalyst Biosciences WT FIXa) [1]: 636%; kcat/KM (catalytic activity for FX activation; Xase complex with FVIIIa, PC/PS vesicles and Ca2+; fluorogenic Spectrafluor FXa read-out) [1]: 2.9e+08 M⁻¹ s⁻¹ |
| B11 | – | – | – | – | – | % of WT kcat/KM (against recombinant Catalyst Biosciences WT FIXa) [1]: 153%; kcat/KM (catalytic activity for FX activation; Xase complex with FVIIIa, PC/PS vesicles and Ca2+; fluorogenic Spectrafluor FXa read-out) [1]: 7.1e+07 M⁻¹ s⁻¹ |
| B12 | – | – | – | – | – | % of WT kcat/KM (against recombinant Catalyst Biosciences WT FIXa) [1]: 593%; kcat/KM (catalytic activity for FX activation; Xase complex with FVIIIa, PC/PS vesicles and Ca2+; fluorogenic Spectrafluor FXa read-out) [1]: 2.7e+08 M⁻¹ s⁻¹ |
| B13 | 7070 | 366 | 0.0883 | 2.3 s⁻¹ | 366 | – |
| B14 | – | – | – | – | – | K0.5-mut/K0.5-wt [7]: 517 |
| B15 | – | – | – | – | – | % of WT kcat/KM (against recombinant Catalyst Biosciences WT FIXa) [1]: 278%; kcat/KM (catalytic activity for FX activation; Xase complex with FVIIIa, PC/PS vesicles and Ca2+; fluorogenic Spectrafluor FXa read-out) [1]: 1.3e+08 M⁻¹ s⁻¹ |
| B16 | – | – | – | – | – | K0.5-mut/K0.5-wt [7]: 517 |
| B17 | 2350 | 122 | 0.0455 | – | 122 | – |
| B18 | – | – | – | – | – | K0.5-mut/K0.5-wt [5]: 396; % of WT kcat/KM (Factor X, P00742): 661%; kcat (Factor X, P00742): 7 s⁻¹; kcat/KM (Factor X, P00742): 3e+08 M⁻¹ s⁻¹; KM (Factor X (FX), P00742): 0.0235 µM; kcat of FX activation by FIXa (Xase complex with FVIIIa, PC/PS vesicles, Ca2+) (Factor X (FX), P00742): 7 s⁻¹; K0.5-mut/K0.5-wt [6]: 396 |
| B19 | 1680 | 86.8 | 0.0592 | – | 86.8 | – |
| B20 | – | – | – | – | – | K0.5-mut/K0.5-wt [7]: 517 |
| B21 | 3460 | 179 | 0.0142 | – | 179 | – |
| B22 | 5880 | 304 | 0.0455 | 5 s⁻¹ and 5.8 s⁻¹ | 304 | catalytic activity (kcat/KM) for activation of FX (Factor X (FX), P00742): displayed some of the greatest increases in catalytic activity |
| B23 | 822 | 42.5 | 0.0399 | 0.6 s⁻¹ | 42.5 | % of WT kcat/KM (Factor X (FX), P00742): 31%; kcat/KM (Factor X (FX), P00742): 1.4e+07 M⁻¹ s⁻¹ |
| B24 | – | – | – | – | – | K0.5-mut/K0.5-wt [7]: 517 |
| B25 | – | – | – | – | – | K0.5-mut/K0.5-wt [7]: 517 |
| B26 | 1100 | 56.8 | 0.016 | 5.6 s⁻¹ | 56.8 | – |
| B27 | 423 | 21.9 | 0.0385 | 2.3 s⁻¹ | 21.9 | % of WT kcat/KM (Factor X (FX), P00742): 139%; kcat/KM (Factor X (FX), P00742): 6.2e+07 M⁻¹ s⁻¹ |
| B28 | 475 | 24.6 | 0.042 | 5 s⁻¹ | 24.6 | – |

Source: patent US20210238260
